The text below walks through data of patent US20250223364A1 (DREN BIO, published 2025).

The target of test [1] is Human monocytes (human) (UniProt Q9BXN2). Nature of the test: cell binding; human monocytes.
The target of test [2] is HEK-Blue hDectin-1a cells (UniProt Q9BXN2). Nature of the test: cell binding; HEK-Blue hDectin-1a cells.
Test [3] concerns the target HEK-Blue hDectin-1b cells (UniProt Q9BXN2). Put plainly: cell binding; HEK-Blue hDectin-1b cells.
The target in test [4] is HEK293F hDectin-1a FL (UniProt Q9BXN2). Nature of the test: cell binding; HEK293F hDectin-1a FL cells.
Test [5] has as its target cynomolgus monkey Dectin-1 (cynomolgus monkey). Put plainly: flow cytometry on cynomolgus monkey monocytes.
The target of test [6] is T1, Dectin-1-expressing HEK cells (human, UniProt Q9BXN2 1-247).
T1 chain: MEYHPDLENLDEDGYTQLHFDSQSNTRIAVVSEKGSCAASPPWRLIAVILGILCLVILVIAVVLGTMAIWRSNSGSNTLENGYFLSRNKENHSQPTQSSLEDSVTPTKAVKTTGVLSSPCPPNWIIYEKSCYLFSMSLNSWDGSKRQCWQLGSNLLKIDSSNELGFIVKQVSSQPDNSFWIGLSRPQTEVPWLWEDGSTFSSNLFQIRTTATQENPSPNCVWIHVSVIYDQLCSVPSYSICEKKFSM
Put plainly: flow cytometry; HEK cells. A general note: In flow cytometry, cells or beads pass a laser one at a time.

Test [7] deals with T2, cynomolgus monkey Dectin-1 (cynomolgus monkey, UniProt A0A2K5UXY6 35-281).
T2 construct: whole, on cells; also called cynomolgus Dectin-1; Dectin-1 on cynomolgus monkey monocytes
T2 sequence: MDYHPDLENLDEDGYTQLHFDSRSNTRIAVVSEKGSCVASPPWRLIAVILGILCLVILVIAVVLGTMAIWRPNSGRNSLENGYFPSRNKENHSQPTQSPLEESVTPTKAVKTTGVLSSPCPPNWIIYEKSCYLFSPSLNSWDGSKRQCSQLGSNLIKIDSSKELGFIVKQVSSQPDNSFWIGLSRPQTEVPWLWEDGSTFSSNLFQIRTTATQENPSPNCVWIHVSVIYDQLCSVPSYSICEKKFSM
Put plainly: flow cytometry on cynomolgus monkey monocytes.

For test [8], the target named is T3, human Dectin-1 (isoform not given) (human, UniProt Q9BXN2 1-247).
T3 construct: whole, on cells; also called hDectin-1; Dectin-1 on human monocytes
T3 sequence (looked up): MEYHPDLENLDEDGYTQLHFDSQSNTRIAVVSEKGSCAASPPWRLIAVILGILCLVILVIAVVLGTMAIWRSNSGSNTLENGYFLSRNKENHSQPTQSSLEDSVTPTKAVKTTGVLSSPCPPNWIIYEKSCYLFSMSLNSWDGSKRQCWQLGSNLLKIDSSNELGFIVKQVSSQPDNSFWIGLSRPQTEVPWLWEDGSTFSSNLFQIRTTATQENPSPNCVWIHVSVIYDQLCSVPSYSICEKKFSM
Nature of the test: flow cytometry on HEK 293 cells stably overexpressing human Dectin-1.

Consider 15E2, for which the EC50 (as a rule, the concentration that produces a half-maximal response) in test [1] was found to be 0.6 nM; in test [2], 1.2 nM; in test [3] it was 9.3 nM; in test [4], 1.4 nM.

In test [5], 15E2 commercial anti-Dectin-1 antibody yielded an EC50 of 14 nM.

Regarding “259931 commercial anti-Dectin-1 antibody”, the EC50 in test [5] was found to be 16 nM.

In the case of GE2, the EC50 in test [1] worked out at 1.4 nM; in test [2] it was 1.9 nM; in test [3], 12 nM; in test [4] it was 2.4 nM.

B1: 2m24/RSV (bispecific antibody)
chain 1: QVQLVQSGAEVKKPGASVKVSCKSSGYTFTDYYIHWVRQAPGQGLEWMGWINPNSGDTNYAQKFQGRITMTRDTSISTAYLELSRLRSDDTAVFYCARNSGSYSFGYWGQGTLVTVSS
chain 2: DIQMTQSPSSVSASVGDRVTITCRASQGISSWLAWYQQKPGKAPKLLIFGASSLQSGVPSRFSGSGSGTDFTLTVSSLQPEDFATYYCQQAYSFPFTFGPGTKVDIE
chain 3: QVTLRESGPALVKPTQTLTLTCTFSGFSLSTSGMSVGWIRQPPGKALEWLADIWWDDKKDYNPSLKSRLTISKDTSANQVVLKVTNMDPADTATYYCARSMITNWYFDVWGAGTTVTVSS
chain 4: DIQMTQSPSTLSASVGDRVTITCKCQLSVGYMHWYQQKPGKAPKLLIYDTSKLASGVPSRFSGSGSGTAFTLTISSLQPDDFATYYCFQGSGYPFTFGGGTKLEIK
For B1, in test [6], the midpoint of the response, the EC50, lay at 1.6 nM.

B2: anti-human Dectin-1 antibody clone 2M24 (mIgG1) (antibody, V domains shown)
VH: QVQLVQSGAEVKKPGASVKVSCKSSGYTFTDYYIHWVRQAPGQGLEWMGWINPNSGDTNYAQKFQGRITMTRDTSISTAYLELSRLRSDDTAVFYCARNSGSYSFGYWGQGTLVTVSS
VL: DIQMTQSPSSVSASVGDRVTITCRASQGISSWLAWYQQKPGKAPKLLIFGASSLQSGVPSRFSGSGSGTDFTLTVSSLQPEDFATYYCQQAYSFPFTFGPGTKVDIE
The molecule B2 gave an EC50 in test [7] of 0.3 nM.

B3: Fab 2M24-mSA fusion protein (Fab, V domains shown)
VH: QVQLVQSGAEVKKPGASVKVSCKSSGYTFTDYYIHWVRQAPGQGLEWMGWINPNSGDTNYAQKFQGRITMTRDTSISTAYLELSRLRSDDTAVFYCARNSGSYSFGYWGQGTLVTVSS
VL: DIQMTQSPSSVSASVGDRVTITCRASQGISSWLAWYQQKPGKAPKLLIFGASSLQSGVPSRFSGSGSGTDFTLTVSSLQPEDFATYYCQQAYSFPFTFGPGTKVDIE
For B3, the EC50 in test [8] was 1.45 nM.
